Results as given in patent publication US20230331827A1, “POTASSIUM CHANNEL INHIBITORS” (priority 2017, published 2023).

What was measured:
huKv1.3 = target: T1, huKv1.3 (Homo sapiens, UniProt P22001); experiment: QPatch automated whole-cell patch-clamp, CHO cells stably expressing huKv1.3 (Example 8); format: cell-based
T1 construct: host or cells: CHO
Procedure: Knottin Kv 1.3 and ASIC1a blockers expressed in the KnotBody format (see examples 6 and 7) were tested for their ability to inhibit the function of the ion channel targets. The effect of these KnotBodies on cells expressing the human Kv 1.3 (huKv1.3) or human ASIC1a channels was assessed using QPatch automated whole-cell patch-clamp electrophysiology (Sophion).
For the testing of Kv1.3, CHO cells stably expressing huKv1.3 (Charles River Lab) were analysed using the QPatch electrophysiology assay in the presence or absence of the KnotBody fusions or the antibody isotypes (negative) controls. Internal and external physiological solutions were freshly prepared prior to the assay. The extracellular solution contained 145 mM NaCl, 4 mM KCl, 2 mM CaCl2, 1 mM MgCl2, 10 mM HEPES and 10 mM glucose; the pH was adjusted to 7.4 with NaOH; the osmolarity was ~ 305 mOsm/L. The intracellular solution contained: KF (120 mM), KCl (20 mM), HEPES (10 mM) and EGTA (10 mM); the pH was adjusted to 7.2 with KOH; osmolarity was ~ 320 mOsm/L.
A series of depolarising voltage (channel activating) pulses were used to monitor the channel currents upon adding control (extracellular solution) to define a control baseline of current activity. To these measured control currents ascending concentrations of KnotBodies or parental antibody isotypes (control molecules) were applied to the external bathing solution (2.2 µM - 0.5 nM, diluted in the extracellular solution). KnotBodies KB_A12 and KB_A07 (EETI-II fusions) were used as isotype controls for the testing. From a holding voltage of -80 mV a depolarising, activating voltage pulses of +30 or +80 mV were applied for 300 ms, every 5 or 10 seconds. The elicited, maximum outward current values measured during the activating step for each solution exchange period were averaged (n = 3 - 8 for each concentration applied) and plotted as concentration-response curves. KB_A07_ShK, KB_A12_ShK and KB_A07_Kaliotoxin (KTX) fusion proteins all inhibited the huKv1.3 currents in a concentration dependent manner with IC50S of approximately 20 nM, 40 nM and 900 nM respectively.

trypsin = experiment: KnotBody Fab TRF binding assay on biotinylated trypsin; settings: for TRF signal for 0.6 ug/mL Fab: Fab 0.6 ug/mL; for TRF signal for 2.4 ug/mL Fab: Fab 2.4 ug/mL; for TRF signal for 10 ug/mL Fab: Fab 10 ug/mL
Procedure: In order to confirm the trypsin binding ability of KnotBodies in Fab format, purified proteins were tested for binding to trypsin using a TRF binding assay. In this assay binding of KnotBody Fabs ([…]) to biotinylated trypsin (immobilised on streptavidin coated Maxisorp™ plates) was detected using a mouse anti-CH1 antibody followed by a europium conjugated anti-mouse antibody (Table 4). 7 KnotBodies (KB_A04, KB_A01, KB_A05, KB_A07, KB_A08, KB_A10, KB_A12) were chosen for crystallisation. DNA prepared for these clones were transfected into 500 ml HEK-293F cells as described before. Expressed proteins were purified using CaptureSelect IgG-CH1 affinity matrix. Purified proteins were initially subjected to crystallisation trials using commercially available crystallisation screens (Supplier). Well-defined crystals were readily obtained for KB_A12 and KB_A05. Crystallisation conditions for these two clones were further optimised and the following condition was used to generate diffraction quality crystals: 0.1 M MES pH=6.5, 25 %w/v PEG MME 2000 and 0.1 M Tris.Cl, 50% PEG MME, 10 mM NiCl2. Complete diffraction data was collected on these crystals at 100 K under liquid nitrogen stream. Collected data was processed using PROTEUM2 software (Bruker). The crystal structure of the knottin-fused Fab antibodies was resolved using molecular replacement technique^109 using Phenix software v 1.8.1-1168^110. Resulting structure was further refined using Phenix.Refine^111. The templates for molecular replacement were downloaded from PDB website (www.rcsb.org/pdb, PDB codes: 3G04 for light chain and 3QOS for heavy chain). KnotBody KB_A12 and KB_A05 sequences are given below. An additional AlaSer sequence is introduced at the N terminus of the light chain from the Nhe1 site used in cloning.
In order to compare the performance of the KnotBodies with short and long linkers, purified Fabs were tested for binding to trypsin by ELISA. In this assay binding of KnotBody Fabs (at 0.5 µg/ml) to biotinylated trypsin (5 µg/ml immobilised on streptavidin coated Maxisorp™ plates) was detected using a mouse anti-CH1 antibody (Hybridoma Reagent Laboratories) followed by a europium conjugated anti-mouse antibody (Perkin Elmer, Cat. No. AD0124). The trypsin binding capability of KB_A07 and KB_A12 KnotBodies were greatly diminished when the short selected linkers were replaced with long and flexible linkers (FIG. 22).

[1] = Kv1.3 channels, IgG KnotBody, Table 11A

T1 sequence (P22001 whole entry): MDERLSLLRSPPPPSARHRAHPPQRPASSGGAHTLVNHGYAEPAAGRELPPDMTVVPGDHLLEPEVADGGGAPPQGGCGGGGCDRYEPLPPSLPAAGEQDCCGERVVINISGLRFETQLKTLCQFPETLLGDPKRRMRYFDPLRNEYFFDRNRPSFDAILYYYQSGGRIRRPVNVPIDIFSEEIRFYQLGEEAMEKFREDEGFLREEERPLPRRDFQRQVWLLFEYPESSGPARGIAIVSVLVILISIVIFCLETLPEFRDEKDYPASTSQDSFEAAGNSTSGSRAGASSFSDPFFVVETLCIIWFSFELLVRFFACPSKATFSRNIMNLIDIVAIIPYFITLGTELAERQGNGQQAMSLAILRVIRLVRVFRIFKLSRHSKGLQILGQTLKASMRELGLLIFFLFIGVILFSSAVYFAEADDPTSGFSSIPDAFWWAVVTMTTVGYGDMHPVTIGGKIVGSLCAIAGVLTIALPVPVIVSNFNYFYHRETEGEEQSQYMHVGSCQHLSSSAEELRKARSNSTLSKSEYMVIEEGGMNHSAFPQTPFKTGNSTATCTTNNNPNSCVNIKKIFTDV

Row | Molecule | IC50 (huKv1.3; [1]) [nM] | IC50 (huKv1.3; huKv1.3 currents, text of Example 8, approximately) [nM] | TRF signal for 0.6 ug/mL Fab (trypsin) | TRF signal for 2.4 ug/mL Fab (trypsin) | TRF signal for 10 ug/mL Fab (trypsin)
1 | KB_A12_ShK: ShK toxin in VL CDR2 of KB_A12, IgG1 (antibody, V domains shown) VH: EVQLVESGGGLVRPGGSLRLSCAASGFTFSSYAMSWVRQAPGKGLEWVSAISGSGGSTYYADSVKGRFTISRDNTKNSLYLQMTSLRADDTAFYYCVKDFGPGYGTGWFDYWGPGTLVTVSS VL: QSVLTQPPSVSEAPRQRVTITCSGSSSNIGNNAVNWYQQLPGKAPKLLIYAAGRRSCIDTIPKSRCTAFQCKHSMKYRLSFCRKTCGTCANSGVSDRFSAAKSGTSASLAINGLRSEDEADYYCAAWDDSLNGYVFGTGTKLTVLG | 20 | ~40 | – | – | –
2 | KB_A12: EETI-II knottin fused into VL CDR2, D1A12 VH; parental KnotBody, isotype control (antibody, V domains shown) VH: EVQLVESGGGLVRPGGSLRLSCAASGFTFSSYAMSWVRQAPGKGLEWVSAISGSGGSTYYADSVKGRFTISRDNTKNSLYLQMTSLRADDTAFYYCVKDFGPGYGTGWFDYWGPGTLVTVSS VL: QSVLTQPPSVSEAPRQRVTITCSGSSSNIGNNAVNWYQQLPGKAPKLLIYAAGRCPRILMRCKQDSDCLAGCVCGPNGFCGANSGVSDRFSAAKSGTSASLAINGLRSEDEADYYCAAWDDSLNGYVFGTGTKLTVLGQP | > 10000 | – | 102132 | 221989 | 252832
3 | KB_A07: EETI-II knottin fused into VL CDR2, D1A12 VH; parental KnotBody, isotype control (antibody, V domains shown) VH: EVQLVESGGGLVRPGGSLRLSCAASGFTFSSYAMSWVRQAPGKGLEWVSAISGSGGSTYYADSVKGRFTISRDNTKNSLYLQMTSLRADDTAFYYCVKDFGPGYGTGWFDYWGPGTLVTVSS VL: DIQMTQSPSSLSASVGDRVTITCRASQSISSYLNWYQQKPGKAPKLLIYAAGVCPRILMRCKQDSDCLAGCVCGPNGFCGSRSGVPSRFSGSGSGTDFTLTISSLQPEDFATYYCQQGASPPYTFGQGTKVEIKRT | > 10000 | – | 107814 | 201003 | 226082
